Target: HLA-A*02:01 (Homo sapiens, UniProt P04439, D140Y/D185E/D98H/E176V/E277Q/G131W/G231S/I119V/I121R/I166T/I218V/L300P/L318F/N151K/N90K/P208A/P217A/Q86G/Q94H/R138H/R169H/T345S)
Assay: MHC binding assay (UV-ligand exchange, ELISA, peptide exchange yield)
Conditions: binding of HLA-class I restricted peptides to HLA-A*02:01
Description: Candidate peptides for T cell based therapies according to the present invention were further tested for their MHC binding capacity (affinity). The individual peptide-MHC complexes were produced by UV-ligand exchange, where a UV-sensitive peptide is cleaved upon UV-irradiation, and exchanged with the peptide of interest as analyzed. Only peptide candidates that can effectively bind and stabilize the peptide-receptive MHC molecules prevent dissociation of the MHC complexes. To determine the yield of the exchange reaction, an ELISA was performed based on the detection of the light chain ([…]) of stabilized MHC complexes. The assay was performed as generally described in Rodenko et al. (Rodenko et al., 2006).
96 well MAXISorp plates (NUNC) were coated over night with 2-ug/ml streptavidin in PBS at room temperature, washed 4× and blocked for 1 h at 37° C. in 2% BSA containing blocking buffer. […] Peptide-MHC monomers of the UV-exchange reaction were diluted 100 fold in blocking buffer. Samples were incubated for 1 h at 37° C., washed four times, incubated with 2-ug/ml HRP conjugated anti-β2m for 1 h at 37° C., washed again and detected with TMB solution that is stopped with […]. Absorption was measured at 450 nm. Candidate peptides that show a high exchange yield (preferably higher than 50%, most preferred higher than 75%) are generally preferred for a generation and production of antibodies or fragments thereof, and/or T cell receptors or fragments thereof, as they show sufficient avidity to the MHC molecules and prevent dissociation of the MHC complexes.

Substance	Peptide exchange (MHC class I binding score, peptide exchange yield)
271 (LVYPLELYPA; listed as Homo sapiens) [compound 271]	″+++″ (≥50% = +++)
241 (SLVEVNPAYSV; listed as Homo sapiens) [compound 241]	″+++″ (≥50% = +++)
252 (LLIGTDVSL; listed as Homo sapiens) [compound 252]	″+++″ (≥50% = +++)
311 (RLYTGMHTV; listed as Homo sapiens) [compound 311]	″+++″ (≥50% = +++)
49 (YLPAVFEEV; listed as Homo sapiens) [compound 49]	″+++″ (≥50% = +++)
174 (ALAQYLITA; listed as Homo sapiens) [compound 174]	″+++″ (≥50% = +++)
32 (KLDDLTQDLTV; listed as Homo sapiens) [compound 32]	″++″ (≥20% = ++)
71 (GILARIASV; listed as Homo sapiens) [compound 71]	″+++″ (≥50% = +++)
95 (SVIPQIQKV; listed as Homo sapiens) [compound 95]	″+++″ (≥50% = +++)
169 (NLPEYLPFV; listed as Homo sapiens) [compound 169]	″+++″ (≥50% = +++)
202 (ALLDQQGSRWTL; listed as Homo sapiens) [compound 202]	″+++″ (≥50% = +++)
333 (FLPDANSSV; listed as Homo sapiens) [compound 333]	″++″ (≥20% = ++)
339 (GLWEIENNPTVKA; listed as Homo sapiens) [compound 339]	″++++″ (≥75% = ++++)
351 (SLIPNLRNV; listed as Homo sapiens) [compound 351]	″+++″ (≥50% = +++)
172 (VLYSYTIITV; listed as Homo sapiens) [compound 172]	″++″ (≥20% = ++)
289 (VLLEIEDLQV; listed as Homo sapiens) [compound 289]	″++++″ (≥75% = ++++)
43 (VLSSLEINI; listed as Homo sapiens) [compound 43]	″++″ (≥20% = ++)
296 (FMEGAIIYV; listed as Homo sapiens) [compound 296]	″+++″ (≥50% = +++)

Substance	Peptide exchange (MHC class I binding score, peptide exchange yield)
57 (TLAELQPPVQL; listed as Homo sapiens) [compound 57]	″+++″ (≥50% = +++)
128 (YLFDDPLSAV; listed as Homo sapiens) [compound 128]	″++″ (≥20% = ++)
21 (VLDELDMEL; listed as Homo sapiens) [compound 21]	″++″ (≥20% = ++)
158 (KLFDVDEDGYI; listed as Homo sapiens) [compound 158]	″+++″ (≥50% = +++)
148 (ALNPEIVSV; listed as Homo sapiens) [compound 148]	″++″ (≥20% = ++)
378 (ALGYFVPYV; listed as Homo sapiens) [compound 378]	″+++″ (≥50% = +++)
177 (YLLPEEYTSTL; listed as Homo sapiens) [compound 177]	″++++″ (≥75% = ++++)
379 (IMEGTLTRV; listed as Homo sapiens) [compound 379]	″++″ (≥20% = ++)
187 (RQISIRGIVGV; listed as Homo sapiens) [compound 187]	″+++″ (≥50% = +++)
34 (ILVEADSLWVV; listed as Homo sapiens) [compound 34]	″+++″ (≥50% = +++)
207 (GLTSTNAEV; listed as Homo sapiens) [compound 207]	″++″ (≥20% = ++)
327 (GLAPFTEGISFV; listed as Homo sapiens) [compound 327]	″+++″ (≥50% = +++)
320 (KMFEFVEPLL; listed as Homo sapiens) [compound 320]	″++++″ (≥75% = ++++)
221 (ALYEEGLLL; listed as Homo sapiens) [compound 221]	″++″ (≥20% = ++)
80 (FLYDNLVESL; listed as Homo sapiens) [compound 80]	″++″ (≥20% = ++)
215 (QLINHLHAV; listed as Homo sapiens) [compound 215]	″+++″ (≥50% = +++)
138 (YQYPRAILSV; listed as Homo sapiens) [compound 138]	″+++″ (≥50% = +++)
297 (VLADIELAQA; listed as Homo sapiens) [compound 297]	″+++″ (≥50% = +++)

Second part, the substance after the results:

Peptide exchange (MHC class I binding score, peptide exchange yield)	Substance
″+++″ (≥50% = +++)	583 (ILANDGVLLAA; listed as Homo sapiens) [compound 583]
″+++″ (≥50% = +++)	437 (SMAPGLVIQAV; listed as Homo sapiens) [compound 437]
″++++″ (≥75% = ++++)	620 (KLLNKIYEA; listed as Homo sapiens) [compound 620]
″++″ (≥20% = ++)	516 (AVGPASILKEV; listed as Homo sapiens) [compound 516]
″+++″ (≥50% = +++)	569 (KLVDRTWTL; listed as Homo sapiens) [compound 569]
″+++″ (≥50% = +++)	592 (RLLSAAENFL; listed as Homo sapiens) [compound 592]
″+++″ (≥50% = +++)	394 (LLAVIGGLVYL; listed as Homo sapiens) [compound 394]
″+++″ (≥50% = +++)	391 (YVYPQRLNFV; listed as Homo sapiens) [compound 391]
″++″ (≥20% = ++)	400 (SLLTEQDLWTV; listed as Homo sapiens) [compound 400]
″+++″ (≥50% = +++)	567 (SLLPLDDIVRV; listed as Homo sapiens) [compound 567]
″+++″ (≥50% = +++)	507 (KLIDDQDISISL; listed as Homo sapiens) [compound 507]
″+++″ (≥50% = +++)	617 (ALMYESEKVGV; listed as Homo sapiens) [compound 617]
″++++″ (≥75% = ++++)	568 (TLYDIAHTPGV; listed as Homo sapiens) [compound 568]
″+++″ (≥50% = +++)	496 (FLVEKQPPQV; listed as Homo sapiens) [compound 496]
″++″ (≥20% = ++)	570 (ALANQIPTV; listed as Homo sapiens) [compound 570]
″++″ (≥20% = ++)	526 (RLAEVGQYEQV; listed as Homo sapiens) [compound 526]
″+++″ (≥50% = +++)	591 (SMAELDIKL; listed as Homo sapiens) [compound 591]
″+++″ (≥50% = +++)	467 (FLAKDFNFL; listed as Homo sapiens) [compound 467]
″++″ (≥20% = ++)	393 (GLLDTQTSQVLTA; listed as Homo sapiens) [compound 393]
″+++″ (≥50% = +++)	441 (ALLENPKMEL; listed as Homo sapiens) [compound 441]

Source: patent US10227388B2, “Peptides and combination of peptides for use in immunotherapy against non-small cell lung cancer and other cancers” (immatics biotechnologies GmbH, priority 2015, dated 2019)
